Measured values from patent US20230235058A1 (OXFORD UNIVERSITY INNOVATION, published 2023).

T1: human FcγR2B (human, UniProt P31994 43-217)
T1 construct: extracellular domain; also called hFcγR2B; CD32B
T1 sequence (looked up): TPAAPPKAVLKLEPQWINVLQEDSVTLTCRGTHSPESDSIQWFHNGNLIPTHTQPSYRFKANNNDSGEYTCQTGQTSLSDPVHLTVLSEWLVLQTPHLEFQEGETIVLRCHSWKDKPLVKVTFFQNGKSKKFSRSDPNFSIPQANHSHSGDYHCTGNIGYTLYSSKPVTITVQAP

T2: human FcγR2A 131H (human, UniProt P12318 34-217)
T2 construct: extracellular domain
T2 sequence (looked up): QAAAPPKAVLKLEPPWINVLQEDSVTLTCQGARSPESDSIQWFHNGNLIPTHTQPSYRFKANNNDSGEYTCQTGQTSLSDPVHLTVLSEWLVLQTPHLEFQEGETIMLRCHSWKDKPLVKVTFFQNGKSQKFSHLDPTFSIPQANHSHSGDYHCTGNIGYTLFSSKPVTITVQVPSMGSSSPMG

T3: human FcγR2A 131R (human, UniProt P12318 34-217)
T3 construct: extracellular domain
T3 sequence (looked up): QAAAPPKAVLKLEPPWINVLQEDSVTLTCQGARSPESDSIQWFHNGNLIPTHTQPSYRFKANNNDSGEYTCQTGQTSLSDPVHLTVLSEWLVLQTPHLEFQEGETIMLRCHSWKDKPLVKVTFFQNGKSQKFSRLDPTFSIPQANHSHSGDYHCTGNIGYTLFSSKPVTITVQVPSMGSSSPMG


What was measured:
[1] = biological target: T1, human FcγR2B; assay: SPR 37C, steady state;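 further: fc variants captured on chip-bound human BTLA ectodomain, recombinant FcγR ectodomains injected as analyte at varied concentrations, double-referenced equilibrium binding fitted to Langmuir model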
[2] = biological target: T4, human FcγR3A 158V (human, UniProt P08637 17-208); assay: SPR 37C, steady state;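 further: fc variants captured on chip-bound human BTLA ectodomain, recombinant FcγR ectodomains injected as analyte at varied concentrations, double-referenced equilibrium binding fitted to Langmuir model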
T4 construct: extracellular domain

[3] = biological target: T2, human FcγR2A 131H; assay: SPR 37C, steady state;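 further: fc variants captured on chip-bound human BTLA ectodomain, recombinant FcγR ectodomains injected as analyte at varied concentrations, double-referenced equilibrium binding fitted to Langmuir model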
[4] = biological target: T3, human FcγR2A 131R; assay: SPR 37C, steady state;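 further: fc variants captured on chip-bound human BTLA ectodomain, recombinant FcγR ectodomains injected as analyte at varied concentrations, double-referenced equilibrium binding fitted to Langmuir model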
[5] = biological target: T5, human FcγR3A 158F (human, UniProt P08637 17-208); assay: SPR 37C, steady state; hIgG1 D265A Fc variant
T5 construct: extracellular domain
Description: (§1) For the low affinity FcγRs (FcγR2A, FcγR2B, FcγR3A and FcγR3B) the interactions were assessed by surface plasmon resonance with the recombinantly expressed FcRs (extracellular domains only) as analyte. Briefly, recombinant human BTLA extracellular domain (BTLA^K31-R151) was covalently immobilised to both flow cells of all channels of a CMS Series S sensor chip using the GE Healthcare Amine coupling kit. The 2.8.6 Fc variant to be assessed was then captured (approx. 500-1000 response units) in flow cell 2 of each channel. Steady state affinity analysis was then performed by injecting varying concentrations of FcR in multiple cycles and measuring equilibrium binding. Double referencing was used (subtracting the signal in the reference Fc1 and also subtracting the signal from a blank zero concentration injection). KDs were calculated from the Langmuir curves (plotting equilibrium binding against analyte concentration to determine the concentration required for half maximal binding).

[6] = biological target: T6, human FcγR3B (human, UniProt O75015 17-200, limits assumed); assay: SPR 37C, steady state; hIgG1 D265A Fc variant
T6 construct: extracellular domain; also called CD16B
Description: as §1

[7] = biological target: T7, human FcRn (human, UniProt P55899 24-297; P61769 21-119, limits assumed, biotinylated); assay: SPR, pH6.0
T7 construct: bought; also called FcRn pH6

[8] = biological target: T8, human FcγR1A (human, UniProt P12314 16-288, biotinylated); assay: SPR 37C, kinetic; hIgG1 D265A Fc variant
T8 construct: bought; also called CD64A
Description: (§2) For the high affinity FcR interactions (FcγR1A, and also FcRn assessed at pH6.0) the binding was assessed in a kinetic analysis with antibody as analyte. […] Reference flow cell 1 was left empty in all channels. Purified antibody was then injected at a single concentration and on/off rates calculated by curve fitting on BiaEvaluation software.

[9] = biological target: T2, human FcγR2A 131H; assay: SPR 37C, steady state; hIgG4 P238D Fc variant
Description: (§3) For the low affinity FcγRs (FcγR2A, FcγR2B, FcγR3A and FcγR3B) the interactions were assessed by surface plasmon resonance with the recombinantly expressed FcRs (extracellular domains only) as analyte. […] The 2.8.6 Fc variant to be assessed was then captured (approx. 500-1000 response units) in flow cell 2 of each channel. Steady state affinity analysis was then performed by injecting varying concentrations of FcR in multiple cycles and measuring equilibrium binding. Double referencing was used (subtracting the signal in the reference Fc1 and also subtracting the signal from a blank zero concentration injection). KDs were calculated from the Langmuir curves (plotting equilibrium binding against analyte concentration to determine the concentration required for half maximal binding).

[10] = biological target: T8, human FcγR1A; assay: SPR 37C, kinetic; hIgG1 D265A S267E Fc variant
Description: as §2

[11] = biological target: T5, human FcγR3A 158F; assay: SPR 37C, steady state
[12] = biological target: T6, human FcγR3B; assay: SPR 37C, steady state
[13] = biological target: T1, human FcγR2B; assay: SPR 37C, steady state; hIgG1 D265A P238D Fc variant
Description: as §1

[14] = biological target: T2, human FcγR2A 131H; assay: as above
Description: as §1

[15] = biological target: T3, human FcγR2A 131R; assay: as above
Description: as §1

[16] = biological target: T6, human FcγR3B; assay: SPR 37C, steady state; hIgG1 D265A A330R Fc variant
Description: as §1

[17] = biological target: T1, human FcγR2B; assay: SPR 37C, steady state; hIgG1 D265A G236D Fc variant
Description: as §1

[18] = biological target: T8, human FcγR1A; assay: SPR 37C, kinetic
Description: as §2

[19] = biological target: T4, human FcγR3A 158V; assay: SPR 37C, steady state; hIgG1 D265A G236D S267E Fc variant
Description: as §3

[20] = biological target: T1, human FcγR2B; assay: SPR 37C, steady state; hIgG1 D265A G236D A330R Fc variant
Description: as §3

T6 sequence (O75015 17-200 limits assumed): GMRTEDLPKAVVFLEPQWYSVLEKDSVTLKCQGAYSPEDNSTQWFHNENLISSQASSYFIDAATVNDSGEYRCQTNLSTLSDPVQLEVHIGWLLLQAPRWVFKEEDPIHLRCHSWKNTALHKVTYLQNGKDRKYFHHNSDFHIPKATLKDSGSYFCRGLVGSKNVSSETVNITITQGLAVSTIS
T5 sequence (P08637 17-208): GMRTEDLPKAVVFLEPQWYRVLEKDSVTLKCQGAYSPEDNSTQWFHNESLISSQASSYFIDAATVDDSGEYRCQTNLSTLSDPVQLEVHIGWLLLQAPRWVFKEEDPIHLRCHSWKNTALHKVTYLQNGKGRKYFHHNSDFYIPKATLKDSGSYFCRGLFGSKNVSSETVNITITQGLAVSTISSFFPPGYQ
T8 sequence (P12314 16-288): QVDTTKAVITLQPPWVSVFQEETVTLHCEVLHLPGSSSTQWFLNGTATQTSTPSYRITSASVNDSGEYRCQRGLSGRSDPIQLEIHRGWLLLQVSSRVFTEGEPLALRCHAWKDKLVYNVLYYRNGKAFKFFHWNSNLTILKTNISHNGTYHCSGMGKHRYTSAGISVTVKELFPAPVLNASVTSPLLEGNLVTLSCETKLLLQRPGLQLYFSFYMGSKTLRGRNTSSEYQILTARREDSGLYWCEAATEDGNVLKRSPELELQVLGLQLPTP
T4 sequence (P08637 17-208 F176V): as the sequence (P08637 17-208) above, with F160V counted along it

| Binder | Kd [1] [µM] | binding result [2] | Kd [3] [µM] | Kd [4] [µM] | avidity (FcRn pH6) [7] [nM] | binding result [11] | binding result [12] | binding result [18] | other results |
| --- | --- | --- | --- | --- | --- | --- | --- | --- | --- |
| humanised 2.8.6 hIgG1 D265A P238D (antibody, Fc variant with the variable domains of humanised 2.8.6; copies: 2 + 2) heavy: not shown light: EIVLTQSPATLSLSPGERATLSCRASSSVSYMHWYQQKPGQAPRPLIYATSNRATGIPARFSGSGSGTDYTLTISSLEPEDFAVYYCHQWSSNPYTFGQGTKLEIKRTVAAPSVFIFPPSDEQLKSGTASVVCLLNNFYPREAKVQWKVDNALQSGNSQESVTEQDSKDSTYSLSSTLTLSKADYEKHKVYACEVTHQGLSSPVTKSFNRGEC | – | no binding | – | – | – | no binding | no binding | – | Kd [13]: 684 µM; Kd [14]: 4590 µM; Kd [15]: 348 µM |
| humanised 2.8.6 hIgG1 D265A A330R (antibody, Fc variant with the variable domains of humanised 2.8.6; copies: 2 + 2) heavy: not shown light: EIVLTQSPATLSLSPGERATLSCRASSSVSYMHWYQQKPGQAPRPLIYATSNRATGIPARFSGSGSGTDYTLTISSLEPEDFAVYYCHQWSSNPYTFGQGTKLEIKRTVAAPSVFIFPPSDEQLKSGTASVVCLLNNFYPREAKVQWKVDNALQSGNSQESVTEQDSKDSTYSLSSTLTLSKADYEKHKVYACEVTHQGLSSPVTKSFNRGEC | 347 | no binding | 39.4 | 67 | – | no binding | – | – | Kd [16]: 9100 µM |
| humanised 2.8.6 hIgG1 D265A G236D (antibody, Fc variant with the variable domains of humanised 2.8.6; copies: 2 + 2) heavy: not shown light: EIVLTQSPATLSLSPGERATLSCRASSSVSYMHWYQQKPGQAPRPLIYATSNRATGIPARFSGSGSGTDYTLTISSLEPEDFAVYYCHQWSSNPYTFGQGTKLEIKRTVAAPSVFIFPPSDEQLKSGTASVVCLLNNFYPREAKVQWKVDNALQSGNSQESVTEQDSKDSTYSLSSTLTLSKADYEKHKVYACEVTHQGLSSPVTKSFNRGEC | – | no binding | – | 91.4 | 14 | no binding | no binding | no binding | Kd [17]: 748 µM; binding result [3]: no binding |
| humanised 2.8.6 hIgG1 D265A G236D A330R (antibody, Fc variant with the variable domains of humanised 2.8.6; copies: 2 + 2) heavy: QVTLKESGPALVKPTQTLTLTCTVSGFSLTTYGVHWIRQPPGKALEWLGVMWPGGRTSYNPSLKSRLTITKDNSKSQVVLTMTNMDPVDTATYYCVRGDYEYDYYAMDYWGQGTLVTVSSASTKGPSVFPLAPSSKSTSGGTAALGCLVKDYFPEPVTVSWNSGALTSGVHTFPAVLQSSGLYSLSSVVTVPSSSLGTQTYICNVNHKPSNTKVDKKVEPKSCDKTHTCPPCPAPELLDGPSVFLFPPKPKDTLMISRTPEVTCVVVAVSHEDPEVKFNWYVDGVEVHNAKTKPREEQYNSTYRVVSVLTVLHQDWLNGKEYKCKVSNKALPRPIEKTISKAKGQPREPQVYTLPPSREEMTKNQVSLTCLVKGFYPSDIAVEWESNGQPENNYKTTPPVLDSDGSFFLYSKLTVDKSRWQQGNVFSCSVMHEALHNHYTQKSLSLSPGK light: EIVLTQSPATLSLSPGERATLSCRASSSVSYMHWYQQKPGQAPRPLIYATSNRATGIPARFSGSGSGTDYTLTISSLEPEDFAVYYCHQWSSNPYTFGQGTKLEIKRTVAAPSVFIFPPSDEQLKSGTASVVCLLNNFYPREAKVQWKVDNALQSGNSQESVTEQDSKDSTYSLSSTLTLSKADYEKHKVYACEVTHQGLSSPVTKSFNRGEC | – | no binding | 91.3 | 91.8 | 14 | no binding | no binding | no binding | Kd [20]: 398 µM |

Continued by falling Kd [4], values first:

| Kd [1] [µM] | binding result [2] | Kd [3] [µM] | Kd [4] [µM] | avidity (FcRn pH6) [7] [nM] | binding result [11] | binding result [12] | binding result [18] | Binder | other results |
| --- | --- | --- | --- | --- | --- | --- | --- | --- | --- |
| 113 | – | – | 61.8 | 18.7 | no binding | no binding | no binding | humanised 2.8.6 hIgG1 D265A G236D S267E (antibody, Fc variant with the variable domains of humanised 2.8.6; copies: 2 + 2) heavy: QVTLKESGPALVKPTQTLTLTCTVSGFSLTTYGVHWIRQPPGKALEWLGVMWPGGRTSYNPSLKSRLTITKDNSKSQVVLTMTNMDPVDTATYYCVRGDYEYDYYAMDYWGQGTLVTVSSASTKGPSVFPLAPSSKSTSGGTAALGCLVKDYFPEPVTVSWNSGALTSGVHTFPAVLQSSGLYSLSSVVTVPSSSLGTQTYICNVNHKPSNTKVDKKVEPKSCDKTHTCPPCPAPELLDGPSVFLFPPKPKDTLMISRTPEVTCVVVAVEHEDPEVKFNWYVDGVEVHNAKTKPREEQYNSTYRVVSVLTVLHQDWLNGKEYKCKVSNKALPAPIEKTISKAKGQPREPQVYTLPPSREEMTKNQVSLTCLVKGFYPSDIAVEWESNGQPENNYKTTPPVLDSDGSFFLYSKLTVDKSRWQQGNVFSCSVMHEALHNHYTQKSLSLSPGK light: EIVLTQSPATLSLSPGERATLSCRASSSVSYMHWYQQKPGQAPRPLIYATSNRATGIPARFSGSGSGTDYTLTISSLEPEDFAVYYCHQWSSNPYTFGQGTKLEIKRTVAAPSVFIFPPSDEQLKSGTASVVCLLNNFYPREAKVQWKVDNALQSGNSQESVTEQDSKDSTYSLSSTLTLSKADYEKHKVYACEVTHQGLSSPVTKSFNRGEC | binding result [3]: no binding; Kd [19]: 1650 µM |
| 193 | no binding | 40.1 | 48.3 | 12 | – | – | – | humanised 2.8.6 hIgG1 D265A (antibody, Fc variant with the variable domains of humanised 2.8.6; copies: 2 + 2) heavy: not shown light: EIVLTQSPATLSLSPGERATLSCRASSSVSYMHWYQQKPGQAPRPLIYATSNRATGIPARFSGSGSGTDYTLTISSLEPEDFAVYYCHQWSSNPYTFGQGTKLEIKRTVAAPSVFIFPPSDEQLKSGTASVVCLLNNFYPREAKVQWKVDNALQSGNSQESVTEQDSKDSTYSLSSTLTLSKADYEKHKVYACEVTHQGLSSPVTKSFNRGEC | Kd [5]: 1490 µM; Kd [6]: 5200 µM; Kd [8]: 0.497 µM |
| 17.5 | – | – | 47.9 | – | – | – | – | humanised 2.8.6 hIgG4 P238D (antibody, Fc variant with the variable domains of humanised 2.8.6; not shown: human IgG4 heavy chain constant region; copies: 2 + 2) heavy: not shown VL: EIVLTQSPATLSLSPGERATLSCRASSSVSYMHWYQQKPGQAPRPLIYATSNRATGIPARFSGSGSGTDYTLTISSLEPEDFAVYYCHQWSSNPYTFGQGTKLEIKRTVAAPSVFIFPPSDEQLKSGTASVVCLLNNFYPREAKVQWKVDNALQSGNSQESVTEQDSKDSTYSLSSTLTLSKADYEKHKVYACEVTHQGLSSPVTKSFNRGEC | Kd [9]: 312 µM |
| 157 | no binding | 173 | 26.7 | 11.9 | no binding | no binding | – | humanised 2.8.6 hIgG1 D265A S267E (antibody, Fc variant with the variable domains of humanised 2.8.6; copies: 2 + 2) heavy: not shown light: EIVLTQSPATLSLSPGERATLSCRASSSVSYMHWYQQKPGQAPRPLIYATSNRATGIPARFSGSGSGTDYTLTISSLEPEDFAVYYCHQWSSNPYTFGQGTKLEIKRTVAAPSVFIFPPSDEQLKSGTASVVCLLNNFYPREAKVQWKVDNALQSGNSQESVTEQDSKDSTYSLSSTLTLSKADYEKHKVYACEVTHQGLSSPVTKSFNRGEC | Kd [10]: 0.415 µM |
